The subject of the data set is glycerol kinase (glpK). Kind of data set: Biochemical measurements of mutant glycerol kinase (partially purified protein): reaction rate and inhibition by FBP. More on the design: species or system Escherichia coli. Conditions: partially purified protein from cells expressing the enzyme. An excerpt: All clones had mutations in the gene for glycerol kinase (glpK), which catalyzes the first step in glycerol catabolism. This protein is subject to inhibition by fructose-1,6-bisphosphate (FBP) and phosphorylated enzyme IIA^Glc. […] Since all glycerol-adapted populations have mutations in glpK, rapid growth on glycerol can be partially attributed to altered kinetic and regulatory properties of glycerol kinase. Evidently the rate of glycerol phosphorylation catalyzed by GlpK is rate-limiting to the growth of WT E. coli MG 1655. The glycerol catabolic pathway generates the glycolytic intermediate dihydroxyacetone phosphate, which can be converted to methylglyoxal, a toxic metabolite when present at high concentrations. It is noteworthy that no mutations were detected in any genes relating to methylglyoxal metabolism.

Among the data in US20100092954A1, “Method for Determining the Genetic Basis for Physiological Changes in Organisms” (priority 2006, published 2010) are Vmax values, retold here.

B1: WT: wild-type E. coli MG1655 glycerol kinase (GlpK) (protein, UniProt P0A6F3 2-502, looked up)
Glycerol kinase: TEKKYIVALDQGTTSSRAVVMDHDANIISVSQREFEQIYPKPGWVEHDPMEIWATQSSTLVEVLAKADISSDQIAAIGITNQRETTIVWEKETGKPIYNAIVWQCRRTAEICEHLKRDGLEDYIRSNTGLVIDPYFSGTKVKWILDHVEGSRERARRGELLFGTVDTWLIWKMTQGRVHVTDYTNASRTMLFNIHTLDWDDKMLEVLDIPREMLPEVRRSSEVYGQTNIGGKGGTRIPISGIAGDQQAALFGQLCVKEGMAKNTYGTGCFMLMNTGEKAVKSENGLLTTIACGPTGEVNYALEGAVFMAGASIQWLRDEMKLINDAYDSEYFATKVQNTNGVYVVPAFTGLGAPYWDPYARGAIFGLTRGVNANHIIRATLESIAYQTRDVLEAMQADSGIRLHALRVDGGAVANNFLMQFQSDILGTRVERPEVREVTALGAAYLAGLAVGFWQNLDELQEKAVIEREFRPGIETTERNYRYAGWKKAVKRAMAWEEHDE
In the case of B1, the Vmax was determined as 15.8 μmol glycerol/min/mg.
